# From the supplement of paper PMC7125110
# ± gives the standard error. For some of these results: Variants at the floor of the assay were thinned out.
# B1: glmS ribozyme (parent)
# chain: AUAAAAGCGCCAGAACUACAGAAAUGUAGUUGACGAGGAGGAGGUUUAUCGAAUUUUCGGCGGAUGCCUCCAAA
# Columns and labels:
# Conditions in all cases: with glucosamine-6-phosphate
# glucosamine-6-phosphate [1] = variants of: B1; experiment: kcat; higher = faster cleavage; RNA array
# Summary of the method: (§1)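 On sequenced MiSeq chips, barcoded ribozyme variants were made in situ by E. coli RNA polymerase and followed at 37 °C through a hybridised Cy3 probe. Glucosamine-6-phosphate was flowed in at 40 μM to 10 mM in HEPES/KCl/Mg(OAc)2 buffer. Exponential fits to normalised per-tile medians gave kobs, and weighted Michaelis–Menten fits gave kcat and KM.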
# glucosamine-6-phosphate [2] = variants of: B1; experiment: self-cleavage kobs at 40 uM GlcN6P; higher = faster cleavage; RNA array
# Summary of the method: as §1
# glucosamine-6-phosphate [3] = variants of: B1; experiment: self-cleavage kobs at 640 uM GlcN6P; higher = faster cleavage; RNA array
# Summary of the method: as §1
# glucosamine-6-phosphate [4] = variants of: B1; experiment: self-cleavage kobs at 10000 uM GlcN6P; higher = faster cleavage; RNA array
# Summary of the method: as §1
# glucosamine-6-phosphate [5] = variants of: B1; experiment: KM; higher = weaker cofactor use; RNA array
# Summary of the method: as §1
# glucosamine-6-phosphate [6] = variants of: B1; experiment: self-cleavage kobs at 2500 uM GlcN6P; higher = faster cleavage; RNA array
# Summary of the method: as §1
# glucosamine-6-phosphate [7] = variants of: B1; experiment: self-cleavage kobs at 160 uM GlcN6P; higher = faster cleavage; RNA array
# Summary of the method: as §1
Variant,kcat (glucosamine-6-phosphate [1]),self-cleavage kobs at 40 uM GlcN6P (glucosamine-6-phosphate [2]),self-cleavage kobs at 640 uM GlcN6P (glucosamine-6-phosphate [3]),self-cleavage kobs at 10000 uM GlcN6P (glucosamine-6-phosphate [4]),KM (glucosamine-6-phosphate [5]),self-cleavage kobs at 2500 uM GlcN6P (glucosamine-6-phosphate [6]),self-cleavage kobs at 160 uM GlcN6P (glucosamine-6-phosphate [7])
A52U C71A,0.000156 ± 2.6e-05 s⁻¹,< 1e-05 s⁻¹,5.96e-05 ± 1.3e-05 s⁻¹,0.000144 ± 1.6e-05 s⁻¹,,,
A52U C71U,0.000457 ± 4e-05 s⁻¹,,0.0001 ± 1.4e-05 s⁻¹,0.000362 ± 3.4e-05 s⁻¹,2130 ± 390 µM,0.000275 ± 2.9e-05 s⁻¹,
A52U C71G,9.41e-05 ± 6.3e-06 s⁻¹,,3.14e-05 ± 1.3e-05 s⁻¹,8.19e-05 ± 1e-05 s⁻¹,1700 ± 380 µM,5.28e-05 ± 9.2e-06 s⁻¹,
U54A U57C,0.000159 ± 5.5e-06 s⁻¹,,3.98e-05 ± 1e-05 s⁻¹,0.000134 ± 2.1e-05 s⁻¹,2020 ± 160 µM,8.52e-05 ± 1.3e-05 s⁻¹,
A53G G66A,0.0293 ± 0.014 s⁻¹,0.000617 ± 0.00011 s⁻¹,0.00474 ± 0.0013 s⁻¹,0.0293 ± 0.0075 s⁻¹,,0.0128 ± 0.005 s⁻¹,
A53U C67A,0.00367 ± 0.00077 s⁻¹,0.000214 ± 2.6e-05 s⁻¹,0.0014 ± 0.00022 s⁻¹,0.00376 ± 0.00054 s⁻¹,785 ± 230 µM,,0.000559 ± 8.4e-05 s⁻¹
C50U C61A C68U,2.59e-05 ± 6.9e-06 s⁻¹,,,,,,
U55G C70A,0.000145 ± 2.6e-05 s⁻¹,5.03e-05 ± 1.3e-05 s⁻¹,0.00015 ± 3e-05 s⁻¹,0.000131 ± 2.6e-05 s⁻¹,,0.000147 ± 2.4e-05 s⁻¹,5.52e-05 ± 1.4e-05 s⁻¹
U55G C70G,0.000127 ± 2.5e-05 s⁻¹,2.75e-05 ± 1.4e-05 s⁻¹,0.00014 ± 1.9e-05 s⁻¹,9.38e-05 ± 1.8e-05 s⁻¹,,0.000184 ± 3.8e-05 s⁻¹,7.54e-05 ± 1.6e-05 s⁻¹
A53C C71G,0.00031 ± 7.7e-05 s⁻¹,,0.000101 ± 1.6e-05 s⁻¹,0.000335 ± 7.4e-05 s⁻¹,1290 ± 620 µM,0.000182 ± 3.4e-05 s⁻¹,4.25e-05 ± 1.8e-05 s⁻¹
A53C U69G,4.01e-05 ± 8e-06 s⁻¹,,5.28e-05 ± 1.3e-05 s⁻¹,,,4.25e-05 ± 8.8e-06 s⁻¹,
G51C C68A,< 1e-05 s⁻¹,< 1e-05 s⁻¹,,,,,
A52G U55G,0.00167 ± 0.00021 s⁻¹,,0.000252 ± 2.5e-05 s⁻¹,0.00124 ± 0.00013 s⁻¹,3170 ± 560 µM,0.000786 ± 7.4e-05 s⁻¹,8.73e-05 ± 8.7e-06 s⁻¹
A52G U55C,0.00205 ± 0.00032 s⁻¹,3.24e-05 ± 8.4e-06 s⁻¹,0.000325 ± 5e-05 s⁻¹,0.00158 ± 0.00017 s⁻¹,3680 ± 850 µM,0.000739 ± 9.4e-05 s⁻¹,8.26e-05 ± 1.2e-05 s⁻¹
U54C A64C,0.000257 ± 3.3e-05 s⁻¹,,3.19e-05 ± 1e-05 s⁻¹,0.000185 ± 2.1e-05 s⁻¹,3560 ± 1000 µM,0.000124 ± 2e-05 s⁻¹,
U55G G60A,2.4e-05 ± 6.2e-07 s⁻¹,,,,1810 ± 130 µM,,

Variant,kcat (glucosamine-6-phosphate [1]),self-cleavage kobs at 40 uM GlcN6P (glucosamine-6-phosphate [2]),self-cleavage kobs at 640 uM GlcN6P (glucosamine-6-phosphate [3]),self-cleavage kobs at 10000 uM GlcN6P (glucosamine-6-phosphate [4]),KM (glucosamine-6-phosphate [5]),self-cleavage kobs at 2500 uM GlcN6P (glucosamine-6-phosphate [6]),self-cleavage kobs at 160 uM GlcN6P (glucosamine-6-phosphate [7])
U54C U69A,0.000112 ± 7.5e-06 s⁻¹,3.96e-05 ± 1.5e-05 s⁻¹,0.000111 ± 3.8e-05 s⁻¹,0.000105 ± 2e-05 s⁻¹,82 ± 22 µM,0.000123 ± 3.1e-05 s⁻¹,6.58e-05 ± 2.2e-05 s⁻¹
U54C C67A,0.00598 ± 0.0014 s⁻¹,0.000198 ± 3.2e-05 s⁻¹,0.00199 ± 0.00058 s⁻¹,0.00521 ± 0.00071 s⁻¹,1580 ± 590 µM,,0.000315 ± 0.00012 s⁻¹
U54C C67G,0.000821 ± 0.00019 s⁻¹,5.95e-05 ± 1.1e-05 s⁻¹,0.000519 ± 7.3e-05 s⁻¹,0.00137 ± 0.00026 s⁻¹,534 ± 220 µM,0.000553 ± 8.6e-05 s⁻¹,0.000179 ± 2.6e-05 s⁻¹
A53C C68G,< 1e-05 s⁻¹,,,,,,
A52G C67U,0.000905 ± 0.00016 s⁻¹,2.66e-05 ± 1.3e-05 s⁻¹,0.000166 ± 2.3e-05 s⁻¹,0.000728 ± 8.4e-05 s⁻¹,2370 ± 740 µM,0.000524 ± 8.6e-05 s⁻¹,7.98e-05 ± 1.7e-05 s⁻¹
A52G C67G,0.000104 ± 6.8e-06 s⁻¹,6.74e-05 ± 9e-06 s⁻¹,0.000107 ± 1e-05 s⁻¹,9.62e-05 ± 8.6e-06 s⁻¹,22.4 ± 10 µM,0.000123 ± 1.6e-05 s⁻¹,7.15e-05 ± 2.3e-05 s⁻¹
G51A C71A,1.9e-05 ± 9e-07 s⁻¹,,,,105 ± 32 µM,,
A53G G59A,0.000102 ± 1.3e-05 s⁻¹,,,7e-05 ± 1.9e-05 s⁻¹,4360 ± 1300 µM,3.91e-05 ± 1.5e-05 s⁻¹,
A53G G59U,2.73e-05 ± 4.3e-06 s⁻¹,,,2.45e-05 ± 7.8e-06 s⁻¹,,2.98e-05 ± 1.2e-05 s⁻¹,
A52G G59A,< 1e-05 s⁻¹,< 1e-05 s⁻¹,,,,,
U55C C58A,0.000437 ± 0.00015 s⁻¹,,9.55e-05 ± 1.2e-05 s⁻¹,0.000455 ± 6.7e-05 s⁻¹,,0.000175 ± 2.3e-05 s⁻¹,4.03e-05 ± 1.3e-05 s⁻¹
C50U C70U,4.57e-05 ± 5.9e-07 s⁻¹,,3.85e-05 ± 1.4e-05 s⁻¹,4.51e-05 ± 7.2e-06 s⁻¹,154 ± 18 µM,4.25e-05 ± 8.3e-06 s⁻¹,
G51U U57A,< 1e-05 s⁻¹,,,< 1e-05 s⁻¹,,< 1e-05 s⁻¹,
A53U C68G,7.87e-05 ± 9.6e-06 s⁻¹,,6.63e-05 ± 1.1e-05 s⁻¹,7.67e-05 ± 7.9e-06 s⁻¹,,7.65e-05 ± 1.4e-05 s⁻¹,8.2e-05 ± 1.4e-05 s⁻¹
U55G A64U,0.000152 ± 1.9e-05 s⁻¹,,,0.00011 ± 1.4e-05 s⁻¹,3480 ± 950 µM,6.75e-05 ± 8.7e-06 s⁻¹,
U54C C58G,5.26e-05 ± 4.8e-06 s⁻¹,,,3.05e-05 ± 1.2e-05 s⁻¹,7250 ± 1300 µM,,
